# Data reported in the supplement of paper PMC11246515.
# ± gives the standard deviation of the averaged measurements.
# Assay: total protein half-life in vivo (active degradation + dilution); higher = more stable protein
# [1] = E. coli NCM3722 delta-clpP delta-lon delta-hslV, growth: N-lim chemostat, doubling time 6 h
# [2] = E. coli NCM3722 delta-clpP, growth: N-lim chemostat, doubling time 6 h
# [3] = E. coli NCM3722 delta-hslV, growth: N-lim chemostat, doubling time 6 h
# [4] = E. coli NCM3722 delta-lon, growth: N-lim chemostat, doubling time 6 h
# [5] = E. coli NCM3722 delta-smpB, growth: N-lim chemostat, doubling time 6 h
# [6] = wild type E. coli NCM3722, growth: C-lim chemostat, doubling time 3 h
# [7] = wild type E. coli NCM3722, growth: C-lim chemostat, doubling time 6 h
# [8] = wild type E. coli NCM3722, growth: C-lim chemostat, doubling time 12 h
# [9] = wild type E. coli NCM3722, growth: N-lim chemostat, doubling time 6 h
# [10] = wild type E. coli NCM3722, growth: N-lim chemostat, doubling time 12 h
# [11] = wild type E. coli NCM3722, growth: P-lim chemostat, doubling time 6 h
# [12] = wild type E. coli NCM3722, growth: P-lim chemostat, doubling time 12 h
Sequence,total protein half-life in vivo [1],total protein half-life in vivo [2],total protein half-life in vivo [3],total protein half-life in vivo [4],total protein half-life in vivo [5],total protein half-life in vivo [6],total protein half-life in vivo [7],total protein half-life in vivo [8],total protein half-life in vivo [9],total protein half-life in vivo [10],total protein half-life in vivo [11],total protein half-life in vivo [12]
MELSSLTAVSPVDGRYGDKVSALRGIFSEYGLLKFRVQVEVRWLQKLAAHAAIKEVPAFAADAIGYLDAIVASFSEEDAARIKTIERTTNHDVKAVEYFLKEKVAEIPELHAVSEFIHFACTSEDINNLSHALMLKTARDEVILPYWRQLIDGIKDLAVQYRDIPLLSRTHGQPATPSTIGKEMANVAYRMERQYRQLNQVEILGKINGAVGNYNAHIAAYPEVDWHQFSEEFVTSLGIQWNPYTTQIEPHDYIAELFDCVARFNTILIDFDRDVWGYIALNHFKQKTIAGEIGSSTMPHKVNPIDFENSEGNLGLSNAVLQHLASKLPVSRWQRDLTDSTVLRNLGVGIGYALIAYQSTLKGVSKLEVNRDHLLDELDHNWEVLAEPIQTVMRRYGIEKPYEKLKELTRGKRVDAEGMKQFIDGLALPEEEKARLKAMTPANYIGRAITMVDELK [P0AB89],4.77 ± 0.41 h,5.24 ± 0.62 h,5.18 ± 0.54 h,5.11 ± 0.4 h,4.63 ± 0.12 h,3.01 ± 0.1 h,5.55 ± 0.32 h,10.5 ± 0.86 h,4.64 ± 0.062 h,8.57 ± 0.16 h,5.79 ± 0.6 h,12.25 ± 0.033 h
MELYREYPAWLIFLRRTYAVAAGVLALPFMLFWKDRARFYSYLHRVWSKTSDKPVWMDQAEKATGDFY [P0AAU2],2.55 ± 0.61 h,–,–,–,1.38 ± 0.15 h,–,–,3.9 h,2.33 h,3.85 h,0.733 h,3.35 ± 1.6 h
MENIMNNPVIGVVMCRNRLKGHATQTLQEKYLNAIIHAGGLPIALPHALAEPSLLEQLLPKLDGIYLPGSPSNVQPHLYGENGDEPDADPGRDLLSMAIINAALERRIPIFAICRGLQELVVATGGSLHRKLCEQPELLEHREDPELPVEQQYAPSHEVQVEEGGLLSALLPECSNFWVNSLHGQGAKVVSPRLRVEARSPDGLVEAVSVINHPFALGVQWHPEWNSSEYALSRILFEGFITACQHHIAEKQRL,–,2.93 h,–,–,–,2.64 h,–,10.5 h,–,–,–,10.6 ± 0.45 h
MENKSARAKVQAFGGFLTAMVIPNIGAFIAWGFITALFIPTGWLPNEHFAKIVGPMITYLLPVMIGSTGGHLVGGKRGAVMGGIGTIGVIVGAEIPMFLGSMIMGPLGGLVIKYVDKALEKRIPAGFEMVINNFSLGIAGMLLCLLGFEVIGPAVLIANTFVKECIEALVHAGYLPLLSVINEPAKVLFLNNAIDQGVYYPLGMQQASVNGKSIFFMVASNPGPGLGLLLAFTLFGKGMSKRSAPGAMIIHFLGGIHELYFPYVLMKPLTIIAMIAGGMSGTWMFNLLDGGLVAGPSPGSIFAYLALTPKGSFLATIAGVTVGTLVSFAITSLILKMEKTVETESEDEFAQSANAVKAMKQEGAFSLSRVKRIAFVCDAGMGSSAMGATTFRKRLEKAGLAIEVKHYAIENVPADADIVVTHASLEGRVKRVTDKPLILINNYIGDPKLDTLFNQLTAEHKH,–,–,–,–,–,2.08 h,3.65 h,8.89 h,–,–,–,–
MENNEIQSVLMNALSLQEVHVSGDGSHFQVIAVGELFDGMSRVKKQQTVYGPLMEYIADNRIHAVSIKAYTPAEWARDRKLNGF [P0A9W6],5.36 ± 0.32 h,3.86 ± 0.21 h,4.35 ± 0.56 h,5.87 ± 1.2 h,4.08 ± 0.3 h,3.11 ± 0.42 h,4.5 h,7.8 ± 0.37 h,4.09 ± 0.043 h,7.378 ± 0.011 h,4.79 ± 0.25 h,10.8 ± 1.1 h
MEPLREIRNRLLNGWQLSKMHTFEVAARHQSFALAAEELSLSPSAVSHRINQLEEELGIQLFVRSHRKVELTHEGKRVYWALKSSLDTLNQEILDIKNQELSGTLTLYSRPSIAQCWLVPALGDFTRRYPSISLTVLTGNDNVNLQRAGIDLAIYFDDAPSAQLTHHFLMDEEILPVCSPEYAQRHALTNTVINLCHCTLLHDRQAWSNDSGTDEWHSWAQHYAVNLPTSSGIGFDRSDLAVIAAMNHIGVAMGRKRLVQKRLASGELVAPFGDMTVKCHQHYYITTLPGRQWPKIEAFIIWLREQVKTTS,5.88 h,5.73 ± 0.3 h,6.65 ± 0.47 h,7.48 ± 0.075 h,6.21 ± 1.6 h,2.74 h,–,11 ± 1.1 h,5.13 h,–,–,–
MEQLRAELSHLLGEKLSRIECVNEKADTALWALYDSQGNPMPLMARSFSTPGKARQLAWKTTMLARSGTVRMPTIYGVMTHEEHPGPDVLLLERMRGVSVEAPARTPERWEQLKDQIVEALLAWHRQDSRGCVGAVDNTQENFWPSWYRQHVEVLWTTLNQFNNTGLTMQDKRILFRTRECLPALFEGFNDNCVLIHGNFCLRSMLKDSRSDQLLAMVGPGLMLWAPREYELFRLMDNSLAEDLLWSYLQRAPVAESFIWRRWLYVLWDEVAQLVNTGRFSRRNFDLASKSLLPWLA [P0AB03],5.11 h,4.02 h,2.54 ± 0.47 h,2.51 h,1.57 h,2.16 ± 0.1 h,3.92 ± 0.21 h,6.84 ± 0.48 h,–,–,3.8 h,7.86 h
MEQRHITGKSHWYHETQSSTTEYDVLPLVPEAAKVSDPFLLDVILEKETLAPFLSWLDPARVLAVDLFPDQLTVTRSQTFTAYERLSTALTVAQVCGVQRLCNYYSARLTPLPGPDSTRESNHRLAQITQYARQLASSPSIIDNRSRQHLNDVGLTAWDCVIISQIIGFIGFQARTIATFQAYLGHPVRWLPGLEIQNYADASLFADESLRWRSSYEVEKLPEEHTKSSTAELCQLAEILSLHPISLSLLEKLLNSTRGNTQPDNQLAALLCARINGSPACFATCMDSSNEYKKISTLMRKGENEINQWADRHSVERATVQAIQWLTRAPDRFSAAQFSPLLEHEKSSTQIINLLVWSGLCGWINRLKIALGETY,6.43 ± 1.4 h,1.97 ± 0.21 h,1.97 ± 0.55 h,1.26 h,1.07 ± 0.024 h,1.25 ± 0.085 h,1.21 ± 0.12 h,1.93 ± 0.13 h,1.31 ± 0.044 h,6.39 ± 6 h,1.32 ± 0.4 h,2.65 ± 0.49 h
